Measurements: article PMC2423650 (Journal of Experimental Botany, 2008)
Changes are numbered by the printed parent chain.

Target: the molecule itself
Assay: SEC

B1: atToc33-His (G-domain of atToc33, His-tagged) (domain or fragment, Arabidopsis thaliana, UniProt O23680 1-251, looked up)
chain: MGSLVREWVGFQQFPAATQEKLIEFFGKLKQKDMNSMTVLVLGKGGVGKSSTVNSLIGEQVVRVSPFQAEGLRPVMVSRTMGGFTINIIDTPGLVEAGYVNHQALELIKGFLVNRTIDVLLYVDRLDVYRVDELDKQVVIAITQTFGKEIWCKTLLVLTHAQFSPPDELSYETFSSKRSDSLLKTIRAGSKMRKQEFEDSAIAVVYAENSGRCSKNDKDEKALPNGEAWIPNLVKAITDVATNQRKAIHVD
Q: What does the source list for B1?
A: Kd: 400 µM; stoichiometry N: 2

B2: atToc33S/E-His (phospho-mimicking mutant of the atToc33 G-domain) (domain or fragment, Arabidopsis thaliana, UniProt O23680 1-251, looked up)
chain: B1 chain with S181E
Q: With B2 as the protein, how does the “fold change of the dissociation constant against atToc33” value read?
A: ~10 fold

Q: And the “stoichiometry N” value?
A: 2
